The numbers were not newly measured in paper PMC7962812, which cites them from elsewhere.

Broadly, the Kd is the free concentration of one partner at which half of the binding sites on the other are occupied at equilibrium, for simple one-to-one binding.

The series concerns the target Bax (Homo sapiens) (UniProt Q07812).

Bcl-2, sequence (P10415 whole entry): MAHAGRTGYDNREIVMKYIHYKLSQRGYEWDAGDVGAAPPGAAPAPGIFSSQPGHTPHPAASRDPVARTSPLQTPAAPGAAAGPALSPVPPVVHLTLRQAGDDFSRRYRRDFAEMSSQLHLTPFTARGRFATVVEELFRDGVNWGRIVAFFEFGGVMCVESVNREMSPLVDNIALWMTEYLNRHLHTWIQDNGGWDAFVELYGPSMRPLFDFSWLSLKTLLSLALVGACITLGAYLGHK
Bax (Homo sapiens), sequence (Q07812 whole entry): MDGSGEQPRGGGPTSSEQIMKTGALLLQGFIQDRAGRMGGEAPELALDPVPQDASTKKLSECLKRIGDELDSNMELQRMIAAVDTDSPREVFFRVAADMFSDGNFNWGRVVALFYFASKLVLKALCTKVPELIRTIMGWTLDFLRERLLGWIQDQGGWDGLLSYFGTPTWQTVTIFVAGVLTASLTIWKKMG

Turning to Bcl-2 (from UniProt P10415), the Kd is 0.0358 µM.
